# Data published in article PMC10347550 (2023).
# Target: integrin αIIbβ3 (Homo sapiens, UniProt P08514)
# Test: tryptophan fluorescence quenching (Stern-Volmer)
row,Kd,Binder
1,112 nM,"Ac-MRADH-NH2 (also: Met and His coordinated to Δ-Ru(Ph2phen)2, dichloride salt) [Δ-[Ru(Ph2phen)2(Ac-MRADH-NH2)]Cl2 (Δ-[3]Cl2)]"
2,83 nM,"Ac-MRGDH-NH2 (also: Met and His coordinated to Δ-Ru(Ph2phen)2, Cl2 salt) [Δ-[Ru(Ph2phen)2(Ac-MRGDH-NH2)]Cl2 (Δ-[1]Cl2)]"
3,61 nM,"Ac-MRGDH-NH2 (also: Met and His coordinated to Λ-Ru(Ph2phen)2, Cl2 salt) [Λ-[Ru(Ph2phen)2(Ac-MRGDH-NH2)]Cl2 (Λ-[1]Cl2)]"
